The text below walks through data of patent US6797812B2, “Caspase-14, an apoptotic protease, nucleic acids encoding and methods of use” (Thomas Jefferson University, priority 1997, dated 2004).

One assay deals with T1, mouse procaspase-14 (Mus musculus, UniProt O89094).
T1 construct: made in house
T1 sequence (O89094 1-257): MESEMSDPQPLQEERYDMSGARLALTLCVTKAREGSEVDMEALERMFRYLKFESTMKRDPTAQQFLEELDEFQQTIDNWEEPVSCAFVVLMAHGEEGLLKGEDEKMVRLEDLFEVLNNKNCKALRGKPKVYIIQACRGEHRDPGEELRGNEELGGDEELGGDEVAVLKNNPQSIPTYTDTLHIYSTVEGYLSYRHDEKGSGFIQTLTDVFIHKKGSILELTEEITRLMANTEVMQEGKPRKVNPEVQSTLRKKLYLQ
As to the kind of experiment: Processing of 35S labeled procaspase-14 by Granzyme B and purified recombinant caspases. In kind it is biochemical. The following applies: Granzyme B 14 ng/μl or recombinant caspases 20 ng/μl, ICE buffer, 37° C., 1 h, FIG. 5B. The protocol:
Upon expression in bacteria, all procaspases are known to autoprocess to various degrees to generate the mature caspase which is composed of the large and small subunits. The observed auto-activation in bacterial overexpression systems is probably mediated by overexpression-induced oligomerization. […] To test this possibility procaspase-14 was incubated with Granzyme B which is known to process several caspase proenzymes. In addition procaspase-14 was incubated with different purified recombinant caspases.
Processing of mouse procaspase-14 by Granzyme B and purified recombinant caspases was carried out under the following conditions: ^35S labeled procaspase-14 was incubated with purified Granzyme B (14 ng/μl) or the indicated purified recombinant caspases (20 ng/μl) in ICE buffer (25 mM Hepes, 1 mM EDTA, 5 mM DTT, 0.1% CHAPS, pH 7.5) at 37° C. for 1 h. The reactions were stopped by addition of an SDS-sample buffer and then the products were analyzed by SDS-PAGE and autoradiography.

Assay [1] can be described thus: Autoprocessing of procaspases overexpressed in bacteria (SDS-PAGE, Coomassie). Format: biochemical. As to conditions: expressed in Escherichia coli, Talon-affinity purified, FIG. 5A.
For a further assay, the system named is MCF-7 cells. As to the kind of experiment: Overexpression of procaspases in MCF-7 cells, morphological signs of apoptosis. In kind it is cell-based. The following applies: transient transfection, X-gal staining 30 h after transfection, FIG. 4. An excerpt:
On the other hand overexpression of the large prodomain initiator procaspases such as procaspase-8 can induce apoptosis, due to their ability to undergo prodomain-mediated oligomerization. To test the ability of procaspase-14 to induce apoptosis in transfected cells, MCF-7 cells were transiently transfected with procaspase-14 in a PRSC lac-Z expression construct under the CMV promoter. Cells were also transfected with an empty vector or constructs encoding procaspase-3, -6, -8, or -10 as controls. The cells were stained with X-gal 30 h after transfection and examined for morphological signs of apoptosis The percentage of round blue apoptotic cells (mean±SD) were represented as a function of total blue cells under each condition (n≧3). SD was less than 5%.

The next assay has as its system procaspase-14. As to the kind of experiment: Processing of T7-tagged procaspase-14 in MCF-7-FAS cells after anti-Fas antibody or TRAIL. In kind it is cell-based. The following applies: treated 36 h after transfection for 3 h, FIG. 5C. The protocol:
(§1) Since caspase-8 and -10 are initiator caspases that are activated by oligomerization of the death receptors (i.e., Fas, TRAIL-R) by their ligands or agonist antibodies, the possibility that procaspase-14 is processed in vivo after induction of apoptosis by anti-Fas antibody or the cytotoxic ligand TRAIL was tested. A mammalian expression construct encoding N-terminal T7-tagged procaspase-14 was transfected into MCF-7-FAS cells. The cells were treated 36 h after transfection with agonist anti-Fas antibody or TRAIL for 3 h. Cells were harvested and lysed by addition of SDS-sample buffer. The cellular proteins were analyzed by SDS-PAGE and then immunoblotted with an anti-T7 HRP-conjugated monoclonal antibody (FIG. 5C, left panel) to detect procaspase-14. The same samples were also immunoblotted with a polyclonal antibody (anti-Mch3α) that preferentially detects the proform of caspase-7 (FIG. 5C, middle panel), or a mixture of the anti-Mch3α antibody and CM-1 antibody that preferentially detects the processes fragments of caspase-7 (FIG. 5C, right panel) to detect the endogenous caspase-7. Pro indicates the proenzyme, LS indicates the large subunit and SS indicates the small subunit. […] The cleavage products of procaspase-14 were not clearly detectable probably due to loss of the epitope tag after processing of the small prodomain of procaspase-14 at Asp7 or Asp 17. […]

For the next assay, the system named is procaspase-7. Put plainly: Processing of endogenous procaspase-7 in MCF-7-FAS cells after anti-Fas antibody or TRAIL. In kind it is cell-based. As to conditions: treated for 3 h, FIG. 5C. The method, then: as §1
Assay [2] deals with S100 extracts from human embryonic kidney 293 cells. As to the kind of experiment: Cytochrome c dependent processing of procaspases in S100 extracts. Format: biochemical. As to conditions: cytochrome c 50 ng/μl, dATP 1 mM, 30° C., 1 h, FIG. 6. The method, then:
To determine if caspase-14 was activated by a way of Apaf-1 and caspase-9, cytochrome c dependent activation was tested. ^35S labeled procaspase-3 (FIG. 6, lanes 1 & 2), procaspase-7 (FIG. 6, lanes 3 & 4), or procaspase-14 (FIG. 6, lanes 5 & 6) were incubated with S100 extracts from human embryonic kidney 293 cells in the absence (−) or presence (+) of cytochrome c (50 ng/μl) and dATP (1 mM) in buffer A (20 mM Hepes, 10 mM KCl, 1.5 mM MgCl2, 1 mM EDTA, 1 mM EGTA, 1 mM DTT, 0.1 mM PMSF, pH 7.5) at 30° C. for 1 h. The reaction products were then analyzed by SDS-PAGE and autoradiography.

Consider “Granzyme B: purified protease known to process several caspase proenzymes”, for which, in the assay with mouse procaspase-14, the “processing of procaspase-14” value was “significant amount of processing”.

B1: procaspase-3: small prodomain executioner procaspase used as control (protein, UniProt P42574 1-277, looked up)
pro-form: MENTENSVDSKSIKNLEPKIIHGSESMDSGISLDNSYKMDYPEMGLCIIINNKNFHKSTGMTSRSGTDVDAANLRETFRNLKYEVRNKNDLTREEIVELMRDVSKEDHSKRSSFVCVLLSHGEEGIIFGTNGPVDLKKITNFFRGDRCRSLTGKPKLFIIQACRGTELDCGIETDSGVDDDMACHKIPVEADFLYAYSTAPGYYSWRNSKDGSWFIQSLCAMLKQYADKLEFMHILTRVNRKVATEFESFSFDATFHAKKQIPCIVSMLTKELYFYH
modifications: pro-form
notes: small prodomain executioner procaspase used as control
Consider B1, for which the “processing of the proenzyme on overexpression in bacteria” value in assay [1] is reported as “completely processes”. The “induction of apoptosis (round blue apoptotic cells as a function of total blue cells)” value in the assay on MCF-7 cells is reported as “unable to induce any significant amount of apoptosis”.

B2: TRAIL: cytotoxic ligand TRAIL (protein, UniProt P50591 1-281, looked up)
Tumor necrosis factor ligand …: MAMMEVQGGPSLGQTCVLIVIFTVLLQSLCVAVTYVYFTNELKQMQDKYSKSGIACFLKEDDSYWDPNDEESMNSPCWQVKWQLRQLVRKMILRTSEETISTVQEKQQNISPLVRERGPQRVAAHITGTRGRSNTLSSPNSKNEKALGRKINSWESSRSGHSFLSNLHLRNGELVIHEKGFYYIYSQTYFRFQEEIKENTKNDKQMVQYIYKYTSYPDPILLMKSARNSCWSKDAEYGLYSIYQGGIFELKENDRIFVSVTNEHLIDMDHEASFFGAFLVG
Take B2: the “processing of procaspase-14 (decreased intensity of proenzyme band)” value in the assay with procaspase-14 was “able to induce processing”. Besides, in the assay on procaspase-7, the “processing of procaspase-7 (decreased intensity of proenzyme band)” value is “able to induce processing”.

B3: procaspase-14: proenzyme of caspase-14, a cell death specific cysteine protease of the caspase family (mouse SEQ ID NO:2) (protein)
chain: KPDMESEMSDPQPLQEERYDMSGARLALTLCVTKAREGSEVDMEALERMFRYLKFESTMKRDPTAQQFLEELDEFQQTIDNWEEPVSCAFVVLMAHGEEGLLKGEDEKMVRLEDLFEVLNNKNCKALRGKPKVYIIQACRGEHRDPGEELRGNEELGGDEELGGDEVAVLKNNPQSIPTYTDTLHIYSTVEGYLSYRHDEKGSGFIQTLTDVFIHKKGSILELTEEITRLMANTEVMQEGKPRKVNPEVQSTLRKKLYLQ
Consider B3, for which the “processing of the proenzyme on overexpression in bacteria” value in assay [1] is given as “no significant processing”. The “induction of apoptosis (round blue apoptotic cells as a function of total blue cells)” value in the assay on MCF-7 cells is “unable to induce any significant amount of apoptosis”. Further, the “cleavage/activation in S-100 extracts activated by cytochrome c and dATP” value in assay [2] is “no cleavage/activation”.

B4: caspase-14: purified recombinant caspase-14 material containing small amount of active caspase-14 (protein)
chain: KPDMESEMSDPQPLQEERYDMSGARLALTLCVTKAREGSEVDMEALERMFRYLKFESTMKRDPTAQQFLEELDEFQQTIDNWEEPVSCAFVVLMAHGEEGLLKGEDEKMVRLEDLFEVLNNKNCKALRGKPKVYIIQACRGEHRDPGEELRGNEELGGDEELGGDEVAVLKNNPQSIPTYTDTLHIYSTVEGYLSYRHDEKGSGFIQTLTDVFIHKKGSILELTEEITRLMANTEVMQEGKPRKVNPEVQSTLRKKLYLQ
For the molecule B4, the “processing of procaspase-14” value with mouse procaspase-14 was “Some processing”.
